{
  "source": "patent US7999089",
  "about": "“RNA aptamers and the uses thereof” (Industry-Academic Cooperation Foundation, Dankook University)",
  "binders": {"B1": {"name": "RNA #20 (ssRNA)", "RNA": "UUCCCGCGGUGGAAAGCGUUGGGUAGCGGCUCCGAUGGAGAGUGGUGCGCCUUGCCUGCUGGCCUUG"}, "B2": {"name": "β-catenin RNA aptamer (ssRNA)", "RNA": "GGACGCGUGGUACCAGGCCGAUCUAUGGACGCUAUAGGCACACCGGAUACUUUAACGAUUGGCUAAGCUUCCGCGGGGAUC"}, "B3": {"name": "RNA #9 (ssRNA)", "RNA": "UGCUGACAAUUCUCGUGCCUCUCCAUGGUCUGCGGCUGAGAAGGUUCGCCAAGUUGUGGGCCGGGGUGC"}, "B4": {"name": "TRE (TCF responsive element) (dsDNA)", "DNA 1": "GGTAAGATCAAAGGG", "DNA 2": "CCCTTTGATCTTACC"}},
  "key": {"TCF-1 C200 (HMG domain) [1]": {"target": "T1, TCF-1 C200 (HMG domain) (Mus musculus, UniProt Q00417 Q00417:188-388)", "T1 sequence (Q00417 188-388, one chain of several)": "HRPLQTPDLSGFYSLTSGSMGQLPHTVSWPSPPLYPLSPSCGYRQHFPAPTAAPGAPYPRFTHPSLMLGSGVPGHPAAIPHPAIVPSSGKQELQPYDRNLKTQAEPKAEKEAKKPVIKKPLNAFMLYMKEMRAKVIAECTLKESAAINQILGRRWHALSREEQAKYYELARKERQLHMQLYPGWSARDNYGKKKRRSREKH", "assay": "competition; excess unlabelled RNA did not compete with #10; text partly contradictory", "conditions": "tags: GST fusion, pGEX 4T-1"}, "[2]": {"target": "GST-β-catenin, full length (UniProt P35222 P35222:1-781)", "sequence (P35222 whole entry, the tested form may be a part, one chain of several)": "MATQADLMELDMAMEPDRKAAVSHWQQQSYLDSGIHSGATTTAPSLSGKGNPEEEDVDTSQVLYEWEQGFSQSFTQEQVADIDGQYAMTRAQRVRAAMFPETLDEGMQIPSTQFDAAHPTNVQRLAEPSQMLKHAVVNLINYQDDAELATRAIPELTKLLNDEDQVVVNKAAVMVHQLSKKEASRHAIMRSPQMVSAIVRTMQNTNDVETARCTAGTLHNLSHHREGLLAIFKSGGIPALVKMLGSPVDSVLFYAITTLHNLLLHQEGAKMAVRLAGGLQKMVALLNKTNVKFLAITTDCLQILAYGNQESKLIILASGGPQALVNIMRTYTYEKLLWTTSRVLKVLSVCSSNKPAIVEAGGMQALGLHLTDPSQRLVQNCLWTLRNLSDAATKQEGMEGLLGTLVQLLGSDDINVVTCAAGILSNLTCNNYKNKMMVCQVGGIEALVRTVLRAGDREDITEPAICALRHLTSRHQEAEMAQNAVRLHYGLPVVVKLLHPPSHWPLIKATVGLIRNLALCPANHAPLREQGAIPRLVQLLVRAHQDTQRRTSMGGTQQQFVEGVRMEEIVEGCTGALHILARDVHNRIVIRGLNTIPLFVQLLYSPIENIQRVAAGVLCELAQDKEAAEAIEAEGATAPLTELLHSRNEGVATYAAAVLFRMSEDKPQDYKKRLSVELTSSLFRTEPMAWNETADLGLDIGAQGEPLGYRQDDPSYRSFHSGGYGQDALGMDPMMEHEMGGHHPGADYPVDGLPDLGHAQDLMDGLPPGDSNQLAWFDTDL", "assay": "EMSA; stated as binding affinity for full length β-catenin", "conditions": "tags: GST fusion, E. coli; label: 32P (radiolabelled)", "method": "After 8 cycles of SELEX selection, the selected sequences were digested with EcoRI and BamHI, followed by cloning into pUC19 to prepare pUC19-aptamer. To test for RNA binding, the RNA was radiolabeled as described previously (Kim & Jeong, Biochem. Biophys. Res. Commun 320:1181-1186, 2004), incubated with GST-β catenin and assayed by GST pull-down (Kim & Jeong, Biochem. Biophys. Res. Commun 320:1181-1186, 2004) or RNA-EMSA (RNA-Electrophoretic Mobility-Shift Assay) (Kim & Jeong, Biochem. Biophys. Res. Commun 320:1181-1186, 2004)."}, "TCF-1 (full length)": {"target": "TCF-1 (full length) (Mus musculus, UniProt Q00417 Q00417:5-388)", "sequence (Q00417 5-388, one chain of several)": "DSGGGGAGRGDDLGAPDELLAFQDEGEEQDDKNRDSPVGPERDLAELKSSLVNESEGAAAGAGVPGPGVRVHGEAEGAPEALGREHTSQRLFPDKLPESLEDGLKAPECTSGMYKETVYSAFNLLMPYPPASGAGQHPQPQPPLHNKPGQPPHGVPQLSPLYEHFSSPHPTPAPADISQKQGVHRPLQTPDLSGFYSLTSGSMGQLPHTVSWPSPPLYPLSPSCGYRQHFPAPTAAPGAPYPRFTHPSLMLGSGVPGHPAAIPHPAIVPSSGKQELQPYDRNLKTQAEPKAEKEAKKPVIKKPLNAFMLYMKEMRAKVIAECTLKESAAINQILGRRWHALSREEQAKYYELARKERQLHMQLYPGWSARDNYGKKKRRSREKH", "assay": "EMSA; specificity control", "conditions": "tags: GST fusion, pGEX 4T-1; label: 32P (radiolabelled)"}, "HuR": {"target": "HuR (UniProt Q15717 Q15717:1-326)", "sequence (Q15717 whole entry, one chain of several)": "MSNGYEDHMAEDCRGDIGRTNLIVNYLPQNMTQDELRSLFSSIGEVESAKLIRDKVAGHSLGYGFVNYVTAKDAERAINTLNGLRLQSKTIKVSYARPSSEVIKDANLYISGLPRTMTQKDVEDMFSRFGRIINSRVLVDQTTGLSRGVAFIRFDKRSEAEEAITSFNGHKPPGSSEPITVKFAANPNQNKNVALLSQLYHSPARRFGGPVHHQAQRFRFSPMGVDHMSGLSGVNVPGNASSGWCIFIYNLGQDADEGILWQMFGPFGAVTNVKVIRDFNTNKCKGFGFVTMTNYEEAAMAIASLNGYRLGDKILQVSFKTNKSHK", "assay": "EMSA; specificity control", "conditions": "label: 32P (radiolabelled)"}, "GST": {"target": "GST (UniProt P08515 P08515:1-218)", "sequence (P08515 whole entry, one chain of several)": "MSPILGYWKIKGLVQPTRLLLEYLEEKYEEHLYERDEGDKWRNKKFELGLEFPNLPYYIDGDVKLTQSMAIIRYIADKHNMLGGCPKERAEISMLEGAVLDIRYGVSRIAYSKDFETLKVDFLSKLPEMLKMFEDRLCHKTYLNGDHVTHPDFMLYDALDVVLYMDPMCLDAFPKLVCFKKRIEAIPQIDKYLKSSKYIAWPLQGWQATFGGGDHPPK", "assay": "EMSA; specificity control", "conditions": "chain copies: 2; label: 32P (radiolabelled)"}, "TCF-1 C200 (HMG domain) [3]": {"target": "T1, TCF-1 C200 (HMG domain)", "assay": "competition; excess unlabelled RNA did not compete with #10", "conditions": "tags: GST fusion, pGEX 4T-1"}, "TCF-1 C200 (HMG domain) [4]": {"target": "T1, TCF-1 C200 (HMG domain)", "assay": "EMSA", "conditions": "tags: GST fusion, pGEX 4T-1; label: 32P 5'-end"}},
  "data": [
    {"binder": "B1", "values": [
      {"measurement": "binding result", "setting": "TCF-1 C200 (HMG domain) [1]", "value": "no binding"}
    ]},
    {"binder": "B2", "values": [
      {"measurement": "Kd", "setting": "[2]", "value": 5, "unit": "nM"},
      {"measurement": "binding result", "setting": "TCF-1 (full length)", "value": "no binding"},
      {"measurement": "binding result", "setting": "HuR", "value": "no binding"},
      {"measurement": "binding result", "setting": "GST", "value": "no binding"}
    ]},
    {"binder": "B3", "values": [
      {"measurement": "binding result", "setting": "TCF-1 C200 (HMG domain) [3]", "value": "no binding"}
    ]},
    {"binder": "B4", "values": [
      {"measurement": "binding result", "setting": "TCF-1 C200 (HMG domain) [4]", "value": "binds"}
    ]}
  ]
}
